# B1: δ3-31 (antibody, V domains shown)
# VH: DVQLQESGPDLVKPSQSLSLTCTVTGYSITSGYGWHWIRQFPGNKLEWMGYISFSGSNKYNPSLKSRISITRDTSKNQFFLQLNSVTTEDTATYYCANLDYWGQGTTLTVSS
# VL: DIQMTQRTSSLSASLGDRVTISCSASQDITNYLHWFQQKPDGTVKLLIYYTSTLHSGVPSRFSGSGSGTDYSLTISNLEPEDIATYYCQQYSKLPYTFGGGTKLEITR
# How the values were obtained:
# [1] = target: recombinant human soluble γ2 δ3TCR-FC (wild type) (human) (UniProt B7Z8K6); test: Octet, γ2δ3TCR-hFc captured on anti-human Fc biosensor; row antibody δ3-42 taken as first (saturating), column antibody as second; 5 µg/mL each
# [2] = target: recombinant human soluble γ2 δ3TCR-FC (wild type) (human) (UniProt B7Z8K6); test: Octet, γ2δ3TCR-hFc captured on anti-human Fc biosensor; row antibody δ3-58 taken as first (saturating), column antibody as second; 5 µg/mL each
# [3] = target: recombinant human soluble γ2 δ3TCR-FC (wild type) (human) (UniProt B7Z8K6); test: Octet, γ2δ3TCR-hFc captured on anti-human Fc biosensor; row antibody δ3-23 taken as first (saturating), column antibody as second; 5 µg/mL each
# [4] = target: γ2δ3 TCR-hFc mutant S5 (D70N, E67Q in the Vδ3 chain) (human) (UniProt B7Z8K6); test: Luminex beads; TCR-hFc captured by goat anti-human Fc; antibody titrated
# [5] = target: γ2δ3 TCR-hFc mutant S4 (E18Q in the Vδ3 chain) (human) (UniProt B7Z8K6); test: as above
# [6] = target: γ2δ3 TCR-hFc mutant S3 (K79L, H88F in the Vδ3 chain) (human) (UniProt B7Z8K6); test: as above
# [7] = target: γ2δ3 TCR-hFc mutant S10 (K3A, K79L, H88T in the Vδ3 chain) (human) (UniProt B7Z8K6); test: as above
# [8] = target: γ2δ3 TCR-hFc mutant S8 (K79L, E18Q, H88F in the Vδ3 chain) (human) (UniProt B7Z8K6); test: as above
# [9] = target: γ2δ3 TCR-hFc mutant S11 (K79L, L82K, H88F in the Vδ3 chain) (human) (UniProt B7Z8K6); test: as above
# [10] = target: γ2δ3 TCR-hFc mutant S2 (D26N, K85L in the Vδ3 chain) (human) (UniProt B7Z8K6); test: as above
# [11] = target: γ2δ3 TCR-hFc mutant S1 (D10N in the Vδ3 chain) (human) (UniProt B7Z8K6); test: as above
# [12] = target: recombinant human soluble γ2 δ3TCR-FC (wild type) (human) (UniProt B7Z8K6); test: as above
# [13] = target: γ2δ3 TCR-hFc mutant S7 (D57N, R65Q in the Vδ3 chain) (human) (UniProt B7Z8K6); test: as above
# [14] = target: γ2δ3 TCR-hFc mutant S6 (R75Q, R95Q in the Vδ3 chain) (human) (UniProt B7Z8K6); test: Luminex beads; TCR-hFc captured by goat anti-human Fc; antibody titrated; extrapolated value, no saturation achieved
# [15] = target: γ2δ3 TCR-hFc mutant S9 (E67Q, D70N, R75Q, R95Q, E97Q in the Vδ3 chain) (human) (UniProt B7Z8K6); test: as above
# [16] = target: recombinant human soluble γ2 δ3TCR-FC (wild type) (human) (UniProt B7Z8K6); test: Octet, γ2δ3TCR-hFc captured on anti-human Fc biosensor; row antibody δ3-08 taken as first (saturating), column antibody as second; 5 µg/mL each
# [17] = target: recombinant human soluble γ2 δ3TCR-FC (wild type) (human) (UniProt B7Z8K6); test: Octet, γ2δ3TCR-hFc captured on anti-human Fc biosensor; row antibody δ3-31 taken as first (saturating), column antibody as second; 5 µg/mL each; self pair
binder,measurement,setting,value
B1,paired-competition value (Octet signal of the second antibody per paragraph 256),[1],0.37
same,paired-competition value (Octet signal of the second antibody per paragraph 256),[2],0.38
same,paired-competition value (Octet signal of the second antibody per paragraph 256),[3],0.4
same,EC50,[4],4.99 nM
same,EC50,[5],0.05 nM
same,EC50,[6],0.05 nM
same,EC50,[7],0.08 nM
same,EC50,[8],0.06 nM
same,EC50,[9],0.06 nM
same,EC50,[10],0.05 nM
same,EC50,[11],0.06 nM
same,EC50,[12],0.05 nM
same,EC50,[13],0.05 nM
same,EC50,[14],44.4 nM
same,EC50,[15],37.7 nM
same,paired-competition value (Octet signal of the second antibody per paragraph 256),[16],0.44
same,paired-competition value (Octet signal of the second antibody per paragraph 256),[17],0.07

# — US12221480
